Results as given in doi:10.1101/2022.01.16.476540 (bioRxiv, 2022).

B3: Sec9 (a.a. 416-651) (domain or fragment)
chain: ARQQQEEDEAVDEIKQEIKFTKQSSVASTRNTLKMAQDAERAGMNTLGMLGHQSEQLNNVEGNLDLMKVQNKVADEKVAELKKLNRSILAVHVSNPFNSKRRRREREEQLKNRKIEEKLMREQTSQQLSQSTQRIEGAMNANNNISEVRERYQRKNVLEKAKRYQFENDEEDDEMELEIDRNLDQIQQVSNRLKKMALTTGKELDSQQKRLNNIEESTDDLDINLHMNTNRLAGIR

How the values were obtained:
[1] = target: T1, Full length Sso1 WT (a.a. 1-290) (yeast (S. cerevisiae), UniProt P32867 1-290); assay: single-molecule pull-down
T1 sequence: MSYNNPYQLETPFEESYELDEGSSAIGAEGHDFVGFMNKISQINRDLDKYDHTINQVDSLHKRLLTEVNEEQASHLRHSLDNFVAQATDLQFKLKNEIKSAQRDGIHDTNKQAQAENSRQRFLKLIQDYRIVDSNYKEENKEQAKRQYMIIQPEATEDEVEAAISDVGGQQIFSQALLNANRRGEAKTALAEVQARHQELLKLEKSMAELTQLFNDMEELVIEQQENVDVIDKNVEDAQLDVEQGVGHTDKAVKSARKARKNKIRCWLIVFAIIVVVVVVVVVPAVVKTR

[2] = target: B3; assay: single-vesicle docking
[3] = target: T1, Full length Sso1 WT (a.a. 1-290); assay: single-vesicle docking
[4] = target: T2, binary Q-SNARE complex (Habc-truncated Sso1: Sec9) on vesicle membranes (yeast (S. cerevisiae), UniProt P32867;P40357); assay: single-vesicle docking
T2 sequence 1: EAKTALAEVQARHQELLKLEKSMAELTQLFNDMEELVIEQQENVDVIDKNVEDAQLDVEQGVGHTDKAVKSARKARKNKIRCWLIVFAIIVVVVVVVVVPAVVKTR
T2 sequence 2: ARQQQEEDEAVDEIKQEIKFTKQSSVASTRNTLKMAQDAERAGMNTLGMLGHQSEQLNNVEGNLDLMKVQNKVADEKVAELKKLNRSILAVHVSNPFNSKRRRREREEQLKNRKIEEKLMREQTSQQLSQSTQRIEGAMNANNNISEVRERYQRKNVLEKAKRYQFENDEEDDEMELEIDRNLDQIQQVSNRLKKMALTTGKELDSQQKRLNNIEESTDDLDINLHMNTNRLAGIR

[5] = target: T3, binary Q-SNARE complex (full-length Sso1: Sec9) on vesicle membranes (yeast (S. cerevisiae), UniProt P32867;P40357); assay: single-vesicle docking
T3 sequence 1: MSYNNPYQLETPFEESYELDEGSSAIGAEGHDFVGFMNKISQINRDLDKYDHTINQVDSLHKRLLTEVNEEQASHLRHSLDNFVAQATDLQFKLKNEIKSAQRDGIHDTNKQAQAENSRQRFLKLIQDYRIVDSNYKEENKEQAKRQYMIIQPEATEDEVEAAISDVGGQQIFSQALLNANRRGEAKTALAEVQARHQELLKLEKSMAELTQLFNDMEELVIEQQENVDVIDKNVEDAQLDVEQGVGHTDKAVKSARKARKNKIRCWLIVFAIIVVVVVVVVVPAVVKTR
T3 sequence 2: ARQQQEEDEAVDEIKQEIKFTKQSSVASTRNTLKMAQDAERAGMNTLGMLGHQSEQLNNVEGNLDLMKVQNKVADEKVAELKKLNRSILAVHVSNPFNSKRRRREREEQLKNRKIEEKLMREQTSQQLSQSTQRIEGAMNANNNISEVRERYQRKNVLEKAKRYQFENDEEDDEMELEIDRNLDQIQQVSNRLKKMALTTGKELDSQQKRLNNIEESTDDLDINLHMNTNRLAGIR

B1: Cy3-labeled Sec9 (A442C) (domain or fragment)
chain: ARQQQEEDEAVDEIKQEIKFTKQSSVCSTRNTLKMAQDAERAGMNTLGMLGHQSEQLNNVEGNLDLMKVQNKVADEKVAELKKLNRSILAVHVSNPFNSKRRRREREEQLKNRKIEEKLMREQTSQQLSQSTQRIEGAMNANNNISEVRERYQRKNVLEKAKRYQFENDEEDDEMELEIDRNLDQIQQVSNRLKKMALTTGKELDSQQKRLNNIEESTDDLDINLHMNTNRLAGIR
B1: binds [1].

B2: Habc domain-truncated Sso1 (a.a. 185-290) (domain or fragment)
chain: EAKTALAEVQARHQELLKLEKSMAELTQLFNDMEELVIEQQENVDVIDKNVEDAQLDVEQGVGHTDKAVKSARKARKNKIRCWLIVFAIIVVVVVVVVVPAVVKTR
B2: binds [2].

B3: binds [3].

B4: Snc2 WT (1-115) (natural protein)
chain: MSSSVPYDPYVPPEESNSGANPNSQNKTAALRQEIDDTVGIMRDNINKVAERGERLTSIEDKADNLAISAQGFKRGANRVRKQMWWKDLKMRMCLFLVVIILLVVIIVPIVVHFS
B4: binds [4]; binds [5].
